The values that follow come from patent publication US6689362.

The target of test [1] is CD7 antigen (human) (UniProt P09564). The experiment in a line: indirect immunofluorescence with FITC goat anti-mouse IgG on MOLT-3 cells, 10 µg/mL (50 nM) TXU-PAP.
For test [2] the target is unchanged. The experiment in a line: cell-based or functional assay.
For test [3] the target is unchanged. The experiment in a line: indirect immunofluorescence, flow cytometry on Jurkat cells.
The target is the same in test [4]. As to the kind of experiment: indirect immunofluorescence, flow cytometry on MOLT-3 cells.

Sequence of TXU-7-PAP immunotoxin (P10297 23-285): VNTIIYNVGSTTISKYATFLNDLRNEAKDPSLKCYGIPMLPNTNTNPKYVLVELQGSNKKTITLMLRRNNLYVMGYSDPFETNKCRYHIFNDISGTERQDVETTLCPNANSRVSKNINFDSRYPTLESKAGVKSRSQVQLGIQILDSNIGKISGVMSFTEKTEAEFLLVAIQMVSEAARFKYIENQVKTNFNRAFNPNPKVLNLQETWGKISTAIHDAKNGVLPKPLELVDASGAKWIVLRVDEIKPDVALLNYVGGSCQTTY

In test [1], “TXU-7-PAP immunotoxin (from UniProt P10297 23-285)” had a percent of cells positive for cell-surface bound immunotoxin of 98%. In test [2], the log kill of clonogenic MOLT-3 blasts, serial dilution clonogenic assay, at 1 µg/mL (=5 nM) was in the range of 2.8 to 3.7 logs.

As for monoclonal antibody TXU-7, the percent of cells stained in test [3] stood at 96%; in test [4] it was 99%.
